The data set can be described thus: self-splicing fitness, log relative to wild type (ln ratio); higher = more splicing; Tetrahymena group I intron in knt gene, E. coli kanamycin selection, DiMSum; sequences stand for … in CUCUCU…GGAGGGAAAAGUUAUCAGGCAUGCACCUGGUAGCUAGUCUUUAAACCAAUAGAUUGCAUCGGUUUAAAAGGCAAGACCGUCAAAUUGCGGGAAAGGGGUCAACAGCCGUUCAGUACCAAGUCUCAGGGGAAACUUUGAGAUGGCCUUGCAAAGGGUAUGGUAAUAAGCUGACGGACAUGGUCCUAACCACGCAGCCAAGUCCUAAGUCAACAGAUCUUCUGUUGAUAUGGAUGCAGUUCACAGACUAAAUGUCGGUCGGGGAAGAUGUAUUCUUCUCAUAAGAUAUAGUCGGACCUCUCCUUAAUGGGAGCUAGCGGAUGAAGUGAUGCAACACUGGAGCCGCUGGGAACUAAUUUGUAUGCGAAAGUAUAUUGAUUAGUUUUGGAGUACUCGUGGUCG
Put shortly: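 Pooled colonies went to amplicon sequencing on an Illumina HiSeq 2500 after six replicate transformations. The plates were LB agar with 100 μg/mL carbenicillin, 50 μM IPTG and 0.2% rhamnose, with or without 25 μg/mL kanamycin, incubated overnight at 37°C or 30°C. The E. coli BL21(DE3) library had all eight P1ex-region intron nucleotides randomised, the intron placed in the knt kanamycin-resistance gene on pET-22b(+). DiMSum fitness is the error-weighted combination of replicate fold changes, kanamycin against none, normalised to wild type.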

± gives the uncertainty stated by the source.

As to CUGCAGCAAUAUUACGAUGA, the “self-splicing fitness (ln)” value is, setting by setting: (30 °C) -3.75 ± 0.22; (37 °C) -2.45 ± 0.23.

For the sequence GGAAAGCAAUAUUACGCAUC, the “self-splicing fitness (ln)” value runs as follows: (30 °C) -2.7 ± 0.17; (37 °C) -2.49 ± 0.31.

CAUGAGCAAUAUUACGCGCA: the “self-splicing fitness (ln)” value reads like this: (30 °C) -2.89 ± 0.19; (37 °C) -1.31 ± 0.16.

Take GACGAGCAAUAUUACGGUAU: the “self-splicing fitness (ln)” value was -3.43 ± 0.19 (30 °C) and -2.08 ± 0.26 (37 °C).

ACAUAGCAAUAUUACGGGUC: the “self-splicing fitness (ln)” value is -3.93 ± 0.25 (30 °C) and -3.24 ± 0.28 (37 °C).

For the sequence UUGCAGCAAUAUUACGACCA, the “self-splicing fitness (ln)” value is -1.8 ± 0.24 (30 °C) and -0.0142 ± 0.18 (37 °C).

In the case of CGGUAGCAAUAUUACGUAUG, the “self-splicing fitness (ln)” value is -0.225 ± 0.092 (30 °C) and 0.297 ± 0.12 (37 °C).

Turning to AUUAAGCAAUAUUACGCUAG, the “self-splicing fitness (ln)” value is, setting by setting: (30 °C) -1.96 ± 0.16; (37 °C) -0.736 ± 0.18.

Regarding GAUAAGCAAUAUUACGUCAC, where the note is “37 °C”, the “self-splicing fitness (ln)” value is -1.86 ± 0.27.

In the case of AUUAAGCAAUAUUACGAACU, the “self-splicing fitness (ln)” value is -0.318 ± 0.12 (30 °C) and 0.315 ± 0.16 (37 °C).

Take UUGUAGCAAUAUUACGAAGU: the “self-splicing fitness (ln)” value reads like this: (30 °C) -2.54 ± 0.28; (37 °C) -2.56 ± 0.48.

Regarding UUCGAGCAAUAUUACGUGUC, the “self-splicing fitness (ln)” value is, setting by setting: (30 °C) -3.11 ± 0.23; (37 °C) -2.77 ± 0.34.

As for AUGAAGCAAUAUUACGAAGG, the “self-splicing fitness (ln)” value is -2.57 ± 0.18 (30 °C) and -0.569 ± 0.19 (37 °C).

As to CGAAAGCAAUAUUACGAGCA, the “self-splicing fitness (ln)” value by setting is: (30 °C) -2.3 ± 0.25; (37 °C) -0.869 ± 0.24.

Regarding GGAAAGCAAUAUUACGUCCG, the “self-splicing fitness (ln)” value (30 °C) is -0.651 ± 0.23 and the “self-splicing fitness (ln)” value (37 °C) is -0.324 ± 0.21.

Consider UUCCAGCAAUAUUACGUUCU, for which, for the setting “37 °C”, the “self-splicing fitness (ln)” value is -3.34 ± 0.31.

Take CUUGAGCAAUAUUACGCUUU: the “self-splicing fitness (ln)” value was -2.88 ± 0.32 (30 °C) and -3.35 ± 0.31 (37 °C).

Take CGAUAGCAAUAUUACGUCGA: the “self-splicing fitness (ln)” value (30 °C) is -3.77 ± 0.25 and the “self-splicing fitness (ln)” value (37 °C) is -1.15 ± 0.12.

For the sequence UUGGAGCAAUAUUACGGUCU, the “self-splicing fitness (ln)” value reads like this: (30 °C) -3.4 ± 0.49; (37 °C) -2.45 ± 0.48.

Take AUACAGCAAUAUUACGGAGG: the “self-splicing fitness (ln)” value (30 °C) was -3.46 ± 0.21 and the “self-splicing fitness (ln)” value (37 °C) is -1.8 ± 0.19.

For the sequence CUACAGCAAUAUUACGGAGA, the “self-splicing fitness (ln)” value reads like this: (30 °C) -4.39 ± 0.42; (37 °C) -2.27 ± 0.27.

As to GCCAAGCAAUAUUACGACCA, the “self-splicing fitness (ln)” value was -1.48 ± 0.17 (30 °C) and -1.36 ± 0.19 (37 °C).

For GACCAGCAAUAUUACGCACG, the “self-splicing fitness (ln)” value runs as follows: (30 °C) -0.677 ± 0.067; (37 °C) -0.895 ± 0.095.

In the case of UAAGAGCAAUAUUACGUGGA, the “self-splicing fitness (ln)” value (30 °C) was -2.84 ± 0.28 and the “self-splicing fitness (ln)” value (37 °C) was -2.14 ± 0.3.

CAAUAGCAAUAUUACGCCUU: the “self-splicing fitness (ln)” value runs as follows: (30 °C) -2.1 ± 0.23; (37 °C) -0.997 ± 0.24.

For AUACAGCAAUAUUACGGAUU, the “self-splicing fitness (ln)” value is, setting by setting: (30 °C) -1.82 ± 0.079; (37 °C) -1.24 ± 0.088.

For the sequence UGGAAGCAAUAUUACGUGUU, the “self-splicing fitness (ln)” value (30 °C) is -3.39 ± 0.16 and the “self-splicing fitness (ln)” value (37 °C) is -2.7 ± 0.17.

In the case of GGUGAGCAAUAUUACGGUUA, the “self-splicing fitness (ln)” value is -2.58 ± 0.22 (30 °C) and -1.85 ± 0.17 (37 °C).

As for AGGUAGCAAUAUUACGUCCC, the “self-splicing fitness (ln)” value is -1.02 ± 0.025 (30 °C) and -0.535 ± 0.042 (37 °C).

With GUGAAGCAAUAUUACGCGAG, the “self-splicing fitness (ln)” value is -0.336 ± 0.057 (30 °C) and -0.0325 ± 0.07 (37 °C).

Turning to CCCUAGCAAUAUUACGCGUC, the “self-splicing fitness (ln)” value was -3.35 ± 0.14 (30 °C) and -3.21 ± 0.23 (37 °C).

As to AAUCAGCAAUAUUACGUCCU, the “self-splicing fitness (ln)” value amounted to 0.497 ± 0.09 (30 °C) and 0.632 ± 0.11 (37 °C).

As for CCUAAGCAAUAUUACGCCGU, the “self-splicing fitness (ln)” value is, setting by setting: (30 °C) -2.92 ± 0.19; (37 °C) -3.22 ± 0.29.

On to GGCUAGCAAUAUUACGCAAG, for which the “self-splicing fitness (ln)” value (30 °C) was -4 ± 0.46 and the “self-splicing fitness (ln)” value (37 °C) was -0.63 ± 0.22.

As to CCAAAGCAAUAUUACGUCAA, the “self-splicing fitness (ln)” value was -3.22 ± 0.14 (30 °C) and -2.02 ± 0.13 (37 °C).

As for UUUGAGCAAUAUUACGUACU, the “self-splicing fitness (ln)” value (30 °C) was -3.28 ± 0.43.

CUUUAGCAAUAUUACGGGAC: the “self-splicing fitness (ln)” value by setting is: (30 °C) -3.25 ± 0.36; (37 °C) -2.36 ± 0.42.

On to CUGAAGCAAUAUUACGACUG, for which the “self-splicing fitness (ln)” value (30 °C) was 0.187 ± 0.08 and the “self-splicing fitness (ln)” value (37 °C) stood at 0.678 ± 0.11.

The record behind these values is the supplement of paper PMC7877785.
